Where a chain is given by its changes, count along the chain named. Names may count otherwise.
B1: humanized R15E6 variant HC2LC1 (antibody, human IgG4 S228P, kappa, V domains shown)
VH: EVQLVESGGGLVQPGGSLRLSCAASGFTFNANAMNWVRQAPGKGLEWVGRIRTKSNNYATYYAGSVKDRFTISRDDSKNSLYLQMNSLKTEDTAVYYCVRDYYGSSAWITYWGQGTLVTVSS
VL: DVVMTQSPSFLSASVGDRVTITCKASQHVGTAVAWYQQRPGKAPKLLIYWASTRHTGVPSRFSGSGSGTEFTLTISSLQPEDFATYFCQQYSSYPFTFGGGTKLEIKR
notes: Human IgG4 (S228P) / kappa, expressed in CHO cells; Signal peptides left out by range; also called VH2-VL1
B2: humanized R15E6 variant HC2LC2 (antibody, human IgG4 S228P, kappa, V domains shown)
VH: B1 VH
VL: DIVMTQSPDSLAVSLGERATINCKASQHVGTAVAWYQQKPGQPPKLLIYWASTRHTGVPDRFSGSGSGTDFTLTISSLQAEDVAVYYCQQYSSYPFTFGQGTKLEIKR
notes: Human IgG4 (S228P) / kappa, expressed in CHO cells; Signal peptides left out by range; also called VH2-VL2
B3: humanized R15E6 variant HC1LC4 (antibody, human IgG4 S228P, kappa, V domains shown)
VH: B1 VH with R19K, P41S, S80T, L81A, V95A
VL: B2 VL with G41E, Q100G, L104V
notes: Human IgG4 (S228P) / kappa, expressed in CHO cells; Signal peptides left out by range; also called VH1-VL4
B4: humanized R15E6 variant HC1LC2 (antibody, human IgG4 S228P, kappa, V domains shown)
VH: B1 VH with R19K, P41S, S80T, L81A, V95A
VL: B2 VL
notes: Human IgG4 (S228P) / kappa, expressed in CHO cells; Signal peptides left out by range; also called VH1-VL2
B5: humanized R15E6 variant HC2LC3 (antibody, human IgG4 S228P, kappa, V domains shown)
VH: B1 VH
VL: B1 VL with V2I, V3Q, S9F, F10S, R39K, E70D
notes: Human IgG4 (S228P) / kappa, expressed in CHO cells; Signal peptides left out by range; also called VH2-VL3
B6: humanized R15E6 variant HC3LC4 (antibody, human IgG4 S228P, kappa, V domains shown)
VH: B1 VH with G16R, A23T, S80I, L81A
VL: B2 VL with G41E, Q100G, L104V
notes: Human IgG4 (S228P) / kappa, expressed in CHO cells; Signal peptides left out by range; also called VH3-VL4
B7: humanized R15E6 variant HC2LC4 (antibody, human IgG4 S228P, kappa, V domains shown)
VH: B1 VH
VL: B2 VL with G41E, Q100G, L104V
notes: Human IgG4 (S228P) / kappa, expressed in CHO cells; Signal peptides left out by range; also called VH2-VL4
B8: mouse/human chimeric antibody HC0LC0 (antibody, human IgG4 S228P, kappa, V domains shown)
VH: EVQLVETGGGLVQPKGSMKLSCAASGFTFNANAMNWIRQAPGKGLEWVARIRTKSNNYATYYAGSVKDRFTISRDDAQNMLYLQMNDLKTEDTAMYYCVRDYYGSSAWITYWGQGTLVTVSA
VL: DIVMTQSHKFMSTSVGDRVSITCKASQHVGTAVAWYQQKPDQSPKQLIYWASTRHTGVPDRFTGSGSGTDFTLTISNVQSEDLADYFCQQYSSYPFTFGSGTKLEIKR
notes: Murine variable domains of R15E6 on human IgG4 (S228P) and kappa constant domains, expressed in CHO cells; also called VH0-VL0

What was measured:
[1] = target: T1, Human HPTP-η with C-terminal His10 tag (Human HPTP-η ECD) (human, UniProt Q12913 36-975); assay: ELISA, coated antigen
T1 construct: Produced in HEK293 cells; it was not cut off; also called Human PTPη; human PTP-η
T1 sequence: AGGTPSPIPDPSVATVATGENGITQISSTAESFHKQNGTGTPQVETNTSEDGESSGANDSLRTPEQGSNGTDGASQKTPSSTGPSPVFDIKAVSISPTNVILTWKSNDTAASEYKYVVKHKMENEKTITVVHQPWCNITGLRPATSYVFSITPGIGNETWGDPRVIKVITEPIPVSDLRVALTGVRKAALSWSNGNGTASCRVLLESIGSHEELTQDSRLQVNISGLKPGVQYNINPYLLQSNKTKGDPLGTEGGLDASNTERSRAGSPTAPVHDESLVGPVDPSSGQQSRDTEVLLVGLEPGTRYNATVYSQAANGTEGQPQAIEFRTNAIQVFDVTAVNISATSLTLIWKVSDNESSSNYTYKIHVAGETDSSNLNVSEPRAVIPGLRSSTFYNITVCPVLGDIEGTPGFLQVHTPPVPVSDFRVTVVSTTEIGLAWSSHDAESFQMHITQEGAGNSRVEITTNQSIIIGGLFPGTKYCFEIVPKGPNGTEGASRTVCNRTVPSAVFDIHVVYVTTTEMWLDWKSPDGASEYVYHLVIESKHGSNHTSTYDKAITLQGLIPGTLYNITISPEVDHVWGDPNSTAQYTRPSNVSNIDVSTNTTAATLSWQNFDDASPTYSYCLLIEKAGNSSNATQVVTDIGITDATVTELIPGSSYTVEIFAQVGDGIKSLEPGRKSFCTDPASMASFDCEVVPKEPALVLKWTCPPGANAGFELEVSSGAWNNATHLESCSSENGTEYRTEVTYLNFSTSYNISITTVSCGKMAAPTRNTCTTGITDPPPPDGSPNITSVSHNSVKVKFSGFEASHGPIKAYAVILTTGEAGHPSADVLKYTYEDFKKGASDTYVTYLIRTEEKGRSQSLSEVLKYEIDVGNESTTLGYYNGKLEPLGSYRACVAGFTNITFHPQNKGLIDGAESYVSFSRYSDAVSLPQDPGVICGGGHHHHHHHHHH
Method: (§1) HPTP-β, cyno PTP-β, and HPTP-η proteins were coated onto ELISA plates in coating buffer (pH 9.4). Each protein was prepared as a 1 μg/mL protein stock in 50 mM carbonate-bicarbonate. The coated proteins were aliquoted at a volume of 100 μL/well into sterile, clear, polystyrene, flat bottom 96-well plates. The plates were incubated overnight at 4° C. After overnight incubation, the plates were washed 3× with 200 μL/well of 1×PBS-T (PBS with 0.05% Tween 20). The immunizing protein was human VE-PTP (HPTP-β). The plates were then blocked with 200 μL/well of 5% blotting grade blocker non-fat dry milk in PBS-T and incubated for 1 hr at room temperature.
(§2) Primary antibody samples were prepared for the humanized variants and the negative control, anti-hCD20-hIgG4S228P, using 1 μg/well in 5% blotting grade blocker non-fat dry milk in PBS. Samples were tested in triplicates. The Fab antibody fragments were treated as the IgG antibodies. The plates were then washed 3× with PBS-T and 100 μL of primary antibody preparation was added in each well. The plates were then incubated for 1 hr at room temperature.
(§3) Then, […] Ultra TMB-ELISA was added in each well, and the plate was allowed to develop for 5 min at room temperature. After 5 min, 50 μL of 2 M sulfuric acid was added to each well to stop the reaction. The plates were then analyzed on a plate reader at an absorbance wavelength of 450 nm.

[2] = target: T2, Human VE-PTP (HPTP-β) containing first eight FN3 repeats with C-terminal His6 tag (Human ½ VE-PTP ECD) (human, UniProt P23467 23-820); assay: ELISA, antigen coated at 1 µg/mL, antibody 1 µg/well
T2 construct: Produced in HEK293 cells and purified by the His tag; it was not cut off; also called Human Beta ½ ECD
T2 sequence: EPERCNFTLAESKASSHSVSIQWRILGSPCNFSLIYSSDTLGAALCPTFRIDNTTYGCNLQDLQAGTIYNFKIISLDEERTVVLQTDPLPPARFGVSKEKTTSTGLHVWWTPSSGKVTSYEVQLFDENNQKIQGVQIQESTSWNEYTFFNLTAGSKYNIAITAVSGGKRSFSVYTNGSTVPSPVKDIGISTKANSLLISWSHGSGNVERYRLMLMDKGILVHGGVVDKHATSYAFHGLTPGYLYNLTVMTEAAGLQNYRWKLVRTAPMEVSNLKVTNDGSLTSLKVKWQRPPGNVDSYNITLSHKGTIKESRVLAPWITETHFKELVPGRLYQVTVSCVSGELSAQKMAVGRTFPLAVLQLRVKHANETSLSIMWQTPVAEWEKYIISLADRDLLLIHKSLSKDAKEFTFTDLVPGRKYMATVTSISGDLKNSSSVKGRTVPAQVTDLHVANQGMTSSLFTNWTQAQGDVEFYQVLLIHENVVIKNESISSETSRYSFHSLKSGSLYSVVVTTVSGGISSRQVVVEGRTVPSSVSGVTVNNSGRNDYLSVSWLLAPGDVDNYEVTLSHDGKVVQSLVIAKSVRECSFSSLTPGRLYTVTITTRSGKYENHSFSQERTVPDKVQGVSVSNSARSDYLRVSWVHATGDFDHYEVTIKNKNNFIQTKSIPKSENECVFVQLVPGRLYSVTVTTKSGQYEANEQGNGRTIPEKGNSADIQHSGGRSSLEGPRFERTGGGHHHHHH
Method: as §1, §2, §3

[3] = target: T2, Human VE-PTP (HPTP-β) containing first …; assay: SPR (Biacore 3000), antibody captured on anti-human IgG, antigen as analyte 100 nM (single concentration)
Method: Samples of each variant were further assessed by Biacore analysis to determine the binding affinity. Antibody binding experiments were performed on Biacore 3000™ at 25° C. Assay buffer: 10 mM HEPES buffer (pH 7.4), 150 mM NaCl, 3 mM EDTA, 0.05% P20 (polyoxyethylenesorbitan). […] Conjugation buffer: 10 mM sodium acetate buffer (pH 5). The flow rate used for capturing the ligand was 5 μL/min. The flow rate for the kinetic analysis was 50 μL/min. Flow cell 1 and […] of the CM5 chip were coated with maximum amounts of goat anti-human IgG. Approximately 150 RU of the test antibody was captured on flow cell 2, 3, and 4 as indicated. The antigen was flowed over the chip. Binding of the antigen to the antibodies was monitored in real time. The KD was determined from the observed kₒₙ and koff values.
A scouting analysis was performed using single analyte concentrations as indicated. At these concentrations, binding can be observed even if the ligand binding is weak. Flow cell 1 response was used for reference subtraction.

Row | Binder | binding result [1] | ELISA value (absorbance at 450 nm) [2] | Ka [3] [M⁻¹] | Kd [3] [nM] | koff [3] [s⁻¹] | kon [3] [M⁻¹ s⁻¹]
1 | B1 | no binding (tested: <=0.2; 1 µg/well) | 1.81 | 7.24e+07 | 13.8 | 0.000688 | 49800
2 | B2 | no binding (tested: <=0.2; 1 µg/well) | 1.92 | 2.85e+08 | 3.51 | 0.000524 | 149000
3 | B3 | no binding (tested: <=0.2; 1 µg/well) | 1.74 | 2.26e+08 | 4.42 | 0.000792 | 179000
4 | B4 | no binding (tested: <=0.2; 1 µg/well) | 1.75 | 3.27e+08 | 3.06 | 0.000769 | 251000
5 | B5 | no binding (tested: <=0.2; 1 µg/well) | 1.55 | 3.36e+08 | 2.98 | 0.000662 | 222000
6 | B6 | no binding (tested: <=0.2; 1 µg/well) | 2 | 1.59e+08 | 6.29 | 0.000887 | 139000
7 | B7 | no binding (tested: <=0.2; 1 µg/well) | 1.65 | 7.72e+07 | 13 | 0.000668 | 51500
8 | B8 | no binding (tested: <=0.2; 1 µg/well) | 1.8 | 1.61e+08 | 6.22 | 0.000417 | 67100

— patent publication US20190077863A1 (AERPIO PHARMACEUTICALS, published 2019)
